In patent publication US20250340640A1 (published 2025):

T1: recombinant protein TCRVB 6-5 (human, captured on a Biotin CAP sensor chip, so presumably biotinylated; the site is not stated)
T1 construct: also called TCRVβ 6-5; TCRβ V6-5*01
T1 TCR beta: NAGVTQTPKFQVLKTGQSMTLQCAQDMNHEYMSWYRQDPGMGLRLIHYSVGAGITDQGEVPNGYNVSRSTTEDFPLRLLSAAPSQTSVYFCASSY


Legend:
[1] = target: T1, recombinant protein TCRVB 6-5; test: SPR, compared with BJM0277
Method: (§1) TCRVB 6-5 at 5 μg/mL was immobilized on a Biotin CAP Series S Sensor Chip to 60 RU. A-H.52 was diluted to 50 nM and then serially diluted two fold. Association was 120 seconds, dissociation was 300 seconds. This assay was run in 1×HBS-EP+ Buffer pH 7.4 and 25C. The data was fit using a 1:1 binding model. A-H.52 is a phage clones and is a monovalent scFv. A-H.52 has two mutations on CDRH1.
(§2) TCRVB 6-5 at 5 ug/mL was immobilized on a Biotin CAP Series S Sensor Chip to 60 RU. A-H.53 was diluted to 50 nM and then serially diluted two fold. Association was 120 seconds, dissociation was 300 seconds. This assay was run in 1×HBS-EP+ Buffer pH 7.4 and 25C. The data was fit using a 1:1 binding model. A-H.53 (phage clone) affinity is in the pM range (Table 16).
as §1, with “A-H.54” for “A-H.52”, “model.” for “model. A-H.52 is a phage clones and is a monovalent scFv. A-H.52 has two mutations on CDRH1.”

[2] = target: T1, recombinant protein TCRVB 6-5; test: SPR, TCRVB 6-5 captured on Biotin CAP Series S chip, 1:1 model, 25C
Method: as §1, §2
as §1, with “A-H.54” for “A-H.52”, “model.” for “model. A-H.52 is a phage clones and is a monovalent scFv. A-H.52 has two mutations on CDRH1.”

Binder	fold greater affinity than BJM0277 [1]	Kd [2]
A-H.52 (scFv, also called phage clone; monovalent scFv) scFv: QVQLVQSGAEVKKPGSSVKVSCKASGYSFTLGYIHWVRQAPGQGLEWMGWFFPGSGNIKYNEKFKGRVTITADTSTSTAYMELSSLRSEDTAVYYCAGSYYSYDVLDYWGQGTTVTVSSGGGGSGGGGSGGGGSGGGGSDIQMTQSPSFLSASVGDRVTITCKASQNVGINVVWHQQKPGKAPKALIYSSSHRYSGVPSRFSGSGSGTEFTLTISSLQPEDFATYFCQQFKSYPLTFGQGTKLEIK	20 fold	1.76 nM
A-H.53 (scFv, Described only as a phage clone; also called phage clone) scFv: QVQLVQSGAEVKKPGSSVKVSCKASGYSFRLTYIHWVRQAPGQGLEWMGWFFPGSGNIKYNEKFKGRVTITADTSTSTAYMELSSLRSEDTAVYYCAGSYYSYDVLDYWGQGTTVTVSSGGGGSGGGGSGGGGSGGGGSDIQMTQSPSFLSASVGDRVTITCKASQNVGINVVWHQQKPGKAPKALIYSSSHRYSGVPSRFSGSGSGTEFTLTISSLQPEDFATYFCQQFKSYPLTFGQGTKLEIK	200 fold	0.165 nM
A-H.54 (scFv, Described only as a phage clone; also called phage clone) scFv: QVQLVQSGAEVKKPGSSVKVSCKASGYSFHNWYIHWVRQAPGQGLEWMGWFFPGSGNIKYNEKFKGRVTITADTSTSTAYMELSSLRSEDTAVYYCAGSYYSYDVLDYWGQGTTVTVSSGGGGSGGGGSGGGGSGGGGSDIQMTQSPSFLSASVGDRVTITCKASQNVGINVVWHQQKPGKAPKALIYSSSHRYSGVPSRFSGSGSGTEFTLTISSLQPEDFATYFCQQFKSYPLTFGQGTKLEIK	17 fold	2.22 nM
